Assay results published in the DeepSol protein solubility set.

Test: soluble on expression in E. coli; label from the status in PepcDB or PDB records
With “EAVHRLDLILCNKTAYQEVFKPENISLRNKLRELCVKLMFLHPVDYGRKAEELLWRKVYYEVIQLIKTNKKHIHSRSTLECAYRTHLVAGIGFYQHLLLYIQSHYQLELQCCIDWTHVTDPLIGCKKPVSASGKEMDWAQMACHRCLVYLGDLSRYQNELAGVDTELLAERFYYQALSVAPQIGMPFNQLGTLAGSKYYNVEAMYCYLRCIQSEVSFEGAYGNLKRLYDKAAKMYHQLKKCETRKLSPGKKRCKDIKRLLVNFMYLQSLLQPKSSSVDSELTSLCQSVLEDFNLCLFYLPSSPNLSLASEDEEEYESGYAFLPDLLIFQMVIICLMCVHSLERAGSKQYSAAIAFTLALFSHLVNHVNIRLQAELEEGENPVPAFQSDGTDEPESKEPVEKEEEPDPEPPPVTPQVGEGRKSRKFSRLSCLRRRRHPPKVGDDSDLSEGFESDSSHDSARASEGSDSGSDKSLEGGGTAFDAETDSEMNSQESRSDLEDMEEEEGTRSPTLEPPRGRSEAPDSLNGPLGPSEASIASNLQAMSTQMFQTKRCFRLAPTFSNLLLQPTTNPHTSASHRPCVNGDVDKPSEPASEEGSESEGSESSGRSCRNERSIQEKLQVLMAEGLLPAVKVFLDWLRTNPDLIIVCAQSSQSLWNRLSVLLNLLPAAGELQESGLALCPEVQDLLEGCELPDLPSSLLLPEDMALRNLPPLRAAHRRFNFDTDRPLLSTLEESVVRICCIRSFGHFIARLQGSILQFNPEVGIFVSIAQSEQESLLQQAQAQFRMAQEEARRNRLMRDMAQLRLQLEVSQLEGSLQQPKAQSAMSPYLVPDTQALCHHLPVIRQLATSGRFIVIIPRTVIDGLDLLKKEHPGARDGIRYLEAEFKKGNRYIRCQKEVGKSFERHKLKRQDADAWTLYKILDSCKQLTLAQGAGEEDPSGMVTIITGLPLDNPSVLSGPMQAALQAAAHASVDIKNVLDFYKQWKEIG” the “soluble on expression in E. coli” value was “soluble”. With “EFRKLGEVCESTNKKTLKISEVSEVKNKGMYPVINSGRDLYGYYHDFNNDGENITIASRGEYAGFINYFNEKFFAGGLCYPYKVKDTNELLTKFLYFYLKTNEIQIMENLVFRGSIPALNKADIETLTIPIPPLEIQQEIVKILDQFSA” the “soluble on expression in E. coli” value was “not soluble”. With “EGFYRHQTQSFSFMVNNVQVVFPSSTSKPWQGLASRRQIDIPQEKVDMIKQSGFVQQASSVYAKWDANITNLKGQNLSSTVSGIDTSYFPLIQRKLQSGSRNLSPSDMKNHTRVAVLGDQIAQMGGIQIGDRLKVNGIPFLVIGITVGEDTGISFGDSRTVFIPQTTYRDLWDAKPWMVLMKPRDGMDAPSFRQNIVNFFAKQLHFDPSDKDAVELPDFSEGAAVISGILRGIQI” the “soluble on expression in E. coli” value was “not soluble”. For “EHIEELLRNIRTQVLIKLIKPYTRIHIPFISKELNIDVADVESLLVQCILDNTIHGRIDQVNQLLELDHQKRGGARYTALDKW”, the “soluble on expression in E. coli” value was “soluble”. In the case of “EKAQLIGPEDADITFVTWGSQKGPILDVIEDLKQDDITANLLYLKMFSPFPTEFVKSILSKAHLVIDVESNFTAQAAQMIKLYTGIEIENKILKYNGRHMTEDEILNSAKNILNK”, the “soluble on expression in E. coli” value is reported as “not soluble”. For “ELYVVASPKSPIMEINKEQLSALYLGRNRVVGNTYINQVLDRSGTVRQRFFLQVTNMQESQINAYWAKLKFSGRLRAPESVVSEQELIAKLEENPFSIGYTDQVPSDALKVLLVL”, the “soluble on expression in E. coli” value was “not soluble”. For “EPEEVIPSRLDIRVGKIITVEKHPDADSLYVEKIDVGEAEPRTVVSGLVQFVPKEELQDRLVVVLCNLKPQKMRGVESQGMLLCASIEGINRQVEPLDPPAGSAPGEHVFVKGYEKGQPDEELKPKKKVFEKLQADFKISEECIAQWKQTNFMTKLGSISCKSLKGGNISLE”, the “soluble on expression in E. coli” value was “soluble”. In the case of “EQPFYRTKVKLKKEIVTLGVPGVDPNKQVGQYVEAKDWNALISDPEVLLIDTRNDYEVAIGTFEGAVDPKTRSFREFPEYIKAHYDPARHKKVAMFCTGGIRCEKASSYMLGAGFEEVFHLKGGILKYLEEVPQEQSLWRGDCFVFDNRVTVRHDLSEGEYDQCHA”, the “soluble on expression in E. coli” value is reported as “not soluble”. In the case of “ESSFTYTLDEKVAELVEFLLLKYEAEEPVTEAEMLMIVIKYKDYFPVILKRAREFMELLFGLALIEVGPDHFCVFANTVGLTDEGSDDEGMPENSLLIIILSVIFIKGNCASEEVIWEVLNAVGVYAGREHFVYGEPRELLTKVWVQGHYLEYREVPHSSPPYYEFLWGPRAHSESIKKKVLEFLAKLNNTVPSSFPSWYKDALKDVEERVQATIDTADD”, the “soluble on expression in E. coli” value is reported as “soluble”.
